In patent US20060252677A1:

Target: NMDA receptor (NMDA receptor/2B subunit and NMDA receptor I) expressed in Xenopus oocytes (human) (UniProt Q13224)
Experiment: cell-based or functional assay

Sequence of Protein-X (novel PSD) expressed from injected RNA in Xenopus oocytes (Q5T2T1 whole entry K322R): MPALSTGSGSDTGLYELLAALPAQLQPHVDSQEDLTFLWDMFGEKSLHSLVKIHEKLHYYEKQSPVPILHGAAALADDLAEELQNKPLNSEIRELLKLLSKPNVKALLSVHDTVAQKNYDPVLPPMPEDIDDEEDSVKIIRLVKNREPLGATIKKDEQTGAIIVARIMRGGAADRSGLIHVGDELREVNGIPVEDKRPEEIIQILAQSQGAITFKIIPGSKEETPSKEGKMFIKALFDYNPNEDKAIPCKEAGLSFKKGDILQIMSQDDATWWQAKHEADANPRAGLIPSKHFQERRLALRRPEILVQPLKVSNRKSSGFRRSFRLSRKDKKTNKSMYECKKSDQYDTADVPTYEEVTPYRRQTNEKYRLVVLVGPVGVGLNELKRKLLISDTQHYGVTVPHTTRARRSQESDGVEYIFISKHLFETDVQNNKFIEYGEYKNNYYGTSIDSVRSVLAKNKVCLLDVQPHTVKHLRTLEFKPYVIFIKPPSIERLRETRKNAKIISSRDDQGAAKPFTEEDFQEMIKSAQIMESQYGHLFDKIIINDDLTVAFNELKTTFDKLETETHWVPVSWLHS

Current variation (µA), Average: 0.55 µA
Current variation (µA), Standard deviation: 0.15 µA
Current variation (µA), oocyte #1, 1000 µM Glu + 10 µM Gly: 0.6 µA
Current variation (µA), oocyte #2, 1000 µM Glu + 10 µM Gly: 0.81 µA
Current variation (µA), oocyte #3, 1000 µM Glu + 10 µM Gly: 0.38 µA
Current variation (µA), oocyte #4, 1000 µM Glu + 10 µM Gly: 0.57 µA
Current variation (µA), oocyte #5, 1000 µM Glu + 10 µM Gly: 0.41 µA
Current variation (µA), oocyte #6, 1000 µM Glu + 10 µM Gly: 0.54 µA
current response to the ligand stimulation, against oocytes expressing PSD-95 with the NMDA receptor: 1.5 times
Substance: Protein-X (novel PSD) expressed from injected RNA in Xenopus oocytes (from UniProt Q5T2T1 1-576)
